Experiment [1] concerns the target Soluble expressed urokinase plasminogen activator receptor. The experiment in a line: SPR. For orientation: SPR reads the build-up and loss of mass on a sensor chip optically.
The target in the next experiment is gC1qR (Homo sapiens) (UniProt Q07021). The following applies: cited from earlier work.
For another experiment, the target named is T1, cytokeratin 1 (Homo sapiens, UniProt P04264).
T1 chain: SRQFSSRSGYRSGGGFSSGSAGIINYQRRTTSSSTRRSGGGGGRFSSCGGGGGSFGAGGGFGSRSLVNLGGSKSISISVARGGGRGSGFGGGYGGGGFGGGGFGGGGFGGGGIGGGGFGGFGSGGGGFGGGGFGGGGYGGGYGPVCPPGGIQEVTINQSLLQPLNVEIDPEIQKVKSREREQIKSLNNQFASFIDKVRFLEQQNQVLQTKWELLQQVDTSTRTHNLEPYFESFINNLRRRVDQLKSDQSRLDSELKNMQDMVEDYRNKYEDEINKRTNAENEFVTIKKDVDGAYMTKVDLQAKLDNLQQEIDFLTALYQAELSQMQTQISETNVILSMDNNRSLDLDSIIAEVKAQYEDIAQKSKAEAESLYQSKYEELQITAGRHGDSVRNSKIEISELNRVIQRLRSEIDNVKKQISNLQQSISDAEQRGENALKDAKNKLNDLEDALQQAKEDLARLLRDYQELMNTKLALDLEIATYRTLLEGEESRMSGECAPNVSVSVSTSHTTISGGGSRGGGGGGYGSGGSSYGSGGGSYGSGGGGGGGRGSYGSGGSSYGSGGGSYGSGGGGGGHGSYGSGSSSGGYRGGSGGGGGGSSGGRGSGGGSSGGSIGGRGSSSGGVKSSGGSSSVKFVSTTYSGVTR
The experiment in a line: SPR.

Chain of gC1qR (Homo sapiens) (Q07021 74-282): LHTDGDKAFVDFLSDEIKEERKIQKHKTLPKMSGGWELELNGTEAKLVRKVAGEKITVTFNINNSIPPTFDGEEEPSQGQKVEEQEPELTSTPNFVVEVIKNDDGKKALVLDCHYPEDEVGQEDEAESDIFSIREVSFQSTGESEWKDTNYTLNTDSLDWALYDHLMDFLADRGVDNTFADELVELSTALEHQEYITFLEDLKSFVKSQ

The term Kd denotes the equilibrium constant for the complex coming apart. “Single-chain urokinase-type plasminogen activator (ligand)” returned a Kd in experiment [1] of 0.1 to 1 nM. With “cleaved high-molecular-weight kininogen (HKa) (from UniProt P01042)”, the Kd with gC1qR (Homo sapiens) was 9 nM.

B1: high-molecular-weight kininogen (HK/HKa) (protein)
chain: QESQSEEIDCNDKDLFKAVDAALKKYNSQNQSNNQFVLYRITEATKTVGSDTFYSFKYEIKEGDCPVQSGKTWQDCEYKDAAKAATGECTATVGKRSSTKFSVATQTCQITPAEGPVVTAQYDCLGCVHPISTQSPDLEPILRHGIQYFNNNTQHSSLFMLNEVKRAQRQVVAGLNFRITYSIVQTNCSKENFLFLTPDCKSLWNGDTGECTDNAYIDIQLRIASFSQNCDIYPGKDFVQPPTKICVGCPRDIPTNSPELEETLTHTITKLNAENNATFYFKIDNVKKARVQVVAGKKYFIDFVARETTCSKESNEELTESCETKKLGQSLDCNAEVYVVPWEKKIYPTVNCQPLGMISLMKRPPGFSPFRSSRIGEIKEETTVSPPHTSMAPAQDEERDSGKEQGHTRRHDWGHEKQRKHNLGHGHKHERDQGHGHQRGHGLGHGHEQQHGLGHGHKFKLDDDLEHQGGHVLDHGHKHKHGHGHGKHKNKGKKNGKHNGWKTEHLASSSEDSTTPSAQTQEKTEGPTPIPSLAKPGVTVTFSDFQDSDLIATMMPPISPAPIQSDDDWIPDIQIDPNGLSFNPISDFPDTTSPKCPGRPWKSVSEINPTTQMKESYYFDLTDGLS
modifications: Zn2+
In the case of B1, in the experiment with cytokeratin 1, the Kd is roughly 10 nM.

(Values after paper PMC3149827 (2011).)
